Assay results: patent publication US20240400693A1 (Chugai, published 2024)

Key:
Experiment in all cases: cell-based or functional assay
[1] = target: HLA-DQ2.5 on IHW09023 cells loaded with BC hordein peptide (human; barley)
[2] = target: HLA-DQ2.5 on IHW09023 cells loaded with gamma 1 gliadin peptide (human; wheat)
[3] = target: HLA-DQ2.5 on IHW09023 cells loaded with omega1/2 gliadin peptide (human; wheat)
[4] = target: HLA-DQ2.5 on IHW09023 cells loaded with gamma 2 gliadin peptide (human; wheat)
[5] = target: HLA-DQ2.5 on IHW09023 cells loaded with 33mer gliadin peptide (human; wheat)
[6] = target: HLA-DQ2.5 on IHW09023 cells loaded with gamma 4d gliadin peptide (human; wheat)
[7] = target: HLA-DQ2.5 on IHW09023 cells loaded with gamma 4a gliadin peptide (human; wheat)
[8] = target: HLA-DQ2.5 on IHW09023 cells loaded with gamma 3 gliadin peptide (human; wheat)

Binder | IC50 (ng/mL), BC hordein TCR, 250 nM BC hordein [1] | IC50 (ng/mL), γ1 gliadin TCR, 250 nM γ1 gliadin [2] | IC50 (ng/mL), ω1 gliadin TCR, 25 µM ω1/2 gliadin [3] | IC50 (ng/mL), ω2 gliadin TCR, 250 nM ω1/2 gliadin [3] | IC50 (ng/mL), γ2 gliadin TCR, 250 nM γ2 gliadin [4] | IC50 (ng/mL), α1a gliadin TCR, 250 nM 33mer gliadin [5] | IC50 (ng/mL), α1b gliadin TCR, 250 nM 33mer gliadin [5] | IC50 (ng/mL), α2 gliadin TCR, 250 nM 33mer gliadin [5] | IC50 (ng/mL), γ4d gliadin TCR, 100 µM γ4d gliadin [6] | IC50 (ng/mL), γ4a gliadin TCR, 25 µM γ4a gliadin [7] | IC50 (ng/mL), γ3 gliadin TCR, 100 µM γ3 gliadin [8]
DQN0344H0976/L0591//DQN0385H1270/L0722-F6 (bispecific antibody) heavy 1: QVQLVESGGGVVQPGGSLRLSCAASGFTFSSAYWMVWVRQAPGQGLEWMGAVYGGSDTTYYAKWTEGRFTISRDTSKNTLYLQMNSLRAEDTAVYYCAREPLNYYYYGELNLWGQGTLVTVSSASTKGPSVFPLAPSSKSTSGGTAALGCLVKDYFPEPVTVSWNSGALTSGVHTFPAVLKSSGLYSLSSVVTVPSSSLGTQTYICNVNHKPSNTKVDKRVEPKSCDKTHTCPPCPAPELRRGPSVFLFPPKPKDTLMISRTPEVTCVVVDVSHEDPEVKFNWYVDGVEVHNAKTKPREEQYNSTYRVVSVLTVLHQDWLNGKEYKCKVSNKALPAPIEKTISKAKGQPREPQVYTLPPSREEMTKNQVSLTCLVKGFYPSDIAVEWESNGQPENNYKTTPPYLDSDGSFFLYSKLTVDKSRWQEGNVFSCSVLHEALHAHYTREELSLSP light 1: DIQMTQSPSSLSASVGDRVTITCQATEEIYSGLAWYQQKPGKAPKLLIYYVSTLYEGIPARFSGSGSGTDFTLTISSLEPEDFAVYYCQTYEDVSAVTFGQGTKVEIKRTVAAPSVFIFPPSDEQLKSGTAEVVCLLNNFYPREAKVQWKVDNALQSGNSEESVTEQDSKDSTYSLSSTLTLSKADYEKHKVYACEVTHQGLSSPVTKSFNRGEC heavy 2: QVQLVESGGGVVQPGRSLRLSCAASGFTFSEWYFMSWVRQAPGKGLEWVASIDTGSGSIDYAEWVEGRFTISRDNSKNTLYLQMNSLRAEDTAVYYCARDIGIDYNFWGPGTLVTVSSASTKGPSVFPLAPSSKSTSGGTAALGCLVEDYFPEPVTVSWNSGALTSGVHTFPAVLESSGLYSLSSVVTVPSSSLGTKTYICNVNHKPSNTKVDKRVEPKSCDKTHTCPPCPAPELRRGPSVFLFPPKPKDTLMISRTPEVTCVVVDVSHEDPEVKFNWYVDGVEVHNAKTKPREEQYNSTYRVVSVLTVLHQDWLNGKEYKCKVSNKALPAPIEKTISKAKGQPREPQVYTLPPSRKEMTKNQVSLTCLVKGFYPSDIAVEWESNGQPENNYKTTPPYLDSDGSFFLYSKLTVDKSRWQQGNVFSCSVLHEALHAHYTRKELSLSP light 2: DIQMTQSPSSLSASVGDRVTITCQTTQSISSYLNWYQQKPGQPPKLLIYYASTKAEGIPARFSGSGLGTDFTLTISSLQPEDFAVYYCHYGISKVSFGQGTKVEIKRTVAAPSVFIFPPSDEQLKSGTAKVVCLLNNFYPREAKVQWKVDNALQSGNSKESVTEQDSKDSTYSLSSTLTLSKADYEKHKVYACEVTHQGLSSPVTKSFNRGEC | 13.2 ng/mL | 0.66 ng/mL | 2.55 ng/mL | 0.26 ng/mL | 281 ng/mL | 0.38 ng/mL | 1.41 ng/mL | 0.31 ng/mL | 16.3 ng/mL | 726 ng/mL | 2.88 ng/mL
DQN0344H0976/L0591//DQN0385H1352/L0681-F6 (bispecific antibody) heavy 1: QVQLVESGGGVVQPGGSLRLSCAASGFTFSSAYWMVWVRQAPGQGLEWMGAVYGGSDTTYYAKWTEGRFTISRDTSKNTLYLQMNSLRAEDTAVYYCAREPLNYYYYGELNLWGQGTLVTVSSASTKGPSVFPLAPSSKSTSGGTAALGCLVKDYFPEPVTVSWNSGALTSGVHTFPAVLKSSGLYSLSSVVTVPSSSLGTQTYICNVNHKPSNTKVDKRVEPKSCDKTHTCPPCPAPELRRGPSVFLFPPKPKDTLMISRTPEVTCVVVDVSHEDPEVKFNWYVDGVEVHNAKTKPREEQYNSTYRVVSVLTVLHQDWLNGKEYKCKVSNKALPAPIEKTISKAKGQPREPQVYTLPPSREEMTKNQVSLTCLVKGFYPSDIAVEWESNGQPENNYKTTPPYLDSDGSFFLYSKLTVDKSRWQEGNVFSCSVLHEALHAHYTREELSLSP light 1: DIQMTQSPSSLSASVGDRVTITCQATEEIYSGLAWYQQKPGKAPKLLIYYVSTLYEGIPARFSGSGSGTDFTLTISSLEPEDFAVYYCQTYEDVSAVTFGQGTKVEIKRTVAAPSVFIFPPSDEQLKSGTAEVVCLLNNFYPREAKVQWKVDNALQSGNSEESVTEQDSKDSTYSLSSTLTLSKADYEKHKVYACEVTHQGLSSPVTKSFNRGEC heavy 2: QVQLVESGGGVVQPGRSLRLSCAASGFEFSEWYFMSWVRQAPGKGLEWVASIDTGSGSIDYAEWVEGRFTISRDNSKNTLYLQMNSLRAEDTAVYYCARDIGIDYNFWGPGTLVTVSSASTKGPSVFPLAPSSKSTSGGTAALGCLVEDYFPEPVTVSWNSGALTSGVHTFPAVLESSGLYSLSSVVTVPSSSLGTKTYICNVNHKPSNTKVDKRVEPKSCDKTHTCPPCPAPELRRGPSVFLFPPKPKDTLMISRTPEVTCVVVDVSHEDPEVKFNWYVDGVEVHNAKTKPREEQYNSTYRVVSVLTVLHQDWLNGKEYKCKVSNKALPAPIEKTISKAKGQPREPQVYTLPPSRKEMTKNQVSLTCLVKGFYPSDIAVEWESNGQPENNYKTTPPYLDSDGSFFLYSKLTVDKSRWQQGNVFSCSVLHEALHAHYTRKELSLSP light 2: DIQMTQSPSSLSASVGDRVTITCQTTQSISSYLNWYQQKPGQPPKLLIYYASTKAEGIPARFSGSGLGTDFTLTISSLEPEDFAVYYCHYGISKVSFGQGTKVEIKRTVAAPSVFIFPPSDEQLKSGTAKVVCLLNNFYPREAKVQWKVDNALQSGNSKESVTEQDSKDSTYSLSSTLTLSKADYEKHKVYACEVTHQGLSSPVTKSFNRGEC | 10.8 ng/mL | 1.11 ng/mL | 1.48 ng/mL | 0.24 ng/mL | 284 ng/mL | 0.29 ng/mL | 1.37 ng/mL | 0.31 ng/mL | 9.82 ng/mL | 802 ng/mL | 2.99 ng/mL
